± gives the uncertainty stated by the source.
Assay: amyloid nucleation score (Sup35N fusion, yeast selection) (log enrichment); library NNK1; higher = more nucleation; inactive = no reads after selection
Outline: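 Peptides of 20 random codons, each fused to Sup35N, were expressed in psi-negative yeast. Cells were induced with 100 μM copper sulfate for 24 hours and grown 7 days at 30°C on medium lacking adenine and uracil, and plasmid inserts before and after selection were Illumina-sequenced. Nucleation scores are DiMSum log enrichments of output over input reads, centred on the mode score of non-aggregating sequences, and sequences under 100 input reads were excluded.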

Substance | amyloid nucleation score
NSRFKNFMSNTHVH | inactive
MNVVILEAYGRSPIGMQAFF | 2.59 ± 0.18
HRCPLTGFSSL | 0.022 ± 0.45
KSQGEVFRVAREGNFIIEES | -1.07 ± 1.2
LNHRIYNLLHVILWVKQWMK | 0.164 ± 1.5
RYRSMHHFRVHDKHPMLGYA | 1.34 ± 0.84
CHMKYFREVVATV | 0.186 ± 1.1
GFGPTIYSFRSSGQGNGLMP | -0.3 ± 0.27
QFRGLDLCLRIRRLVAYTGI | 0.285 ± 0.64
YYNVCHNRINLVTSWFFYRR | 0.946 ± 0.78
RYNTPNGVYICLNA | -1.03 ± 0.39
VRVSVLLVYSGGRFSFPWVL | -0.063 ± 1.4
LFETI | 0.746 ± 0.71
CYKAAQGFIFSRK | 0.482 ± 0.32
HHDMGSFFAVQSTSGTEGMG | -0.099 ± 0.37
MLQFFVSWGILVKICVWTVG | inactive
SGQTYGNFFGEAFWYECA | 0.19 ± 1.4
YVCPRSWVVRVRHQKTFQSY | -0.374 ± 0.81
SVSVQERTSGVYSHVSSENY | -0.162 ± 0.45
GAYNWVF | -0.107 ± 0.55
WDAGVFWKMYLSTCRTSI | 0.949 ± 0.54
EYGDDVLWMFSTILCVRGEW | -0.626 ± 0.47
NECDVALIRWWG | 0.419 ± 0.45
KRCSFWQTRTVELSFGHPVL | -1.23 ± 2.7
LGSWRFMLAVI | 0.375 ± 0.48

Substance | amyloid nucleation score
VSSNYMRNML | 0.169 ± 0.34
GFLTSSIYRSLAVQLNQSWW | 0.078 ± 0.32
NFLMKWCEINTCLLVSFSYW | 4.5 ± 0.071
VFGVVSFLHDFNFGKAYFAV | 0.191 ± 0.4
RNPTFFAMCSMCWLSTT | 0.852 ± 0.97
IYFKIVILLRSSFFL | inactive
ISVMEFFVISGFTNWVKCFV | 1.06 ± 0.31
GGKAIIQCLEW | -0.362 ± 1.2
TFYMTSSLST | 0.028 ± 0.67
LWRLEWLLSGQRGTSPAVRV | 0.764 ± 0.55
KFVWVIAVDVDSRCKFCCGS | 0.354 ± 0.82
PWFIYDSLGFNSRCRSHLIK | -0.069 ± 0.88
LRAWMSVASDNGLLMFCRNH | -0.324 ± 0.46
NRLKFSLV | -2.62 ± 2.7
TCIIFIYNSWSSLQPFMSGM | 2.65 ± 0.21
TGTDVQGRSRLSDRAWGGYD | -0.098 ± 0.36
VLVKQGVMA | 0.868 ± 0.78
LCFGGRSWSCFVKVKHLFAC | 1.68 ± 0.51
WIILFWHYFSKYFQPLIGRS | inactive
LLAFYSVTFVSRWILQCYML | -0.498 ± 0.36
IESMVYITPCIEGIRWNWEK | 0.122 ± 0.36
KRPSSFVEFFMLWRSKAR | 0.947 ± 0.43
HVVFTKMCSNTTET | 0.026 ± 0.49
MEPFSAC | -0.276 ± 1.9
ISSWTHVW | 1.23 ± 0.85

Substance | amyloid nucleation score
HDASSFSLMRKFRCGC | 0.333 ± 0.69
DVISLTHVEKSWLVSLWKRS | -0.045 ± 0.69
ILCALMRFLVETLHLINFWK | -0.278 ± 0.61
ARTRVLMKQVQGFKSFTILH | 0.192 ± 0.52
SKLFLGGLPCTQYWPRMCMV | -0.356 ± 0.64
CSHRM | 0.707 ± 0.51
GNSVIDRSFGIFNCYEGLSC | 1.62 ± 0.72
QWQIDMIPRCLGDMNLIVLQ | inactive
ADDGCSRNVCQTLYMSFLVN | -0.072 ± 0.35
ISVHHFR | 0.282 ± 0.57
RMRRLCVSEGRDLSGECCYM | 0.544 ± 0.3
LINMYSMDMTTDHAPAYKLD | -0.302 ± 0.47
GSRFPFLVVDMCSSELVKR | 0.577 ± 0.63
SKSRMLPIGTRGCRNSQFVE | 1.06 ± 0.63
TLYIYAMEDSGGFEDGGMCI | 4.18 ± 0.1
FTSAASQFRVMSGQSNSKYP | -1.2 ± 2.4
VLTWMDVTDLLGCVLKLSPV | 1.36 ± 0.45
CFSSNCMEFLSNVLYKNINP | 0.626 ± 0.78
YMKLRCMK | 0.019 ± 0.6
VMLPHHWSLNKNY | 0.264 ± 0.29
PELYSVDHFNGYAPNYCRCR | -0.534 ± 0.43
EPYSLAIKGVHTLLRGSRKS | 0.571 ± 0.29
DEDHFYTSRML | 0.639 ± 1.1
TCSGA | -0.073 ± 0.39
VRNETSCTAIVFRSE | 0.14 ± 0.22

Substance | amyloid nucleation score
KKFRVGVDLSRCTLGLENYK | 4.3 ± 0.059
WIHIVYGFWSWVWGI | -0.327 ± 0.47
TRGCLRPATSKSGMRPW | 0.056 ± 0.69
RHLRVTFNSLSWRKMKAGVV | -0.314 ± 0.86
SGPFSTYMTRFFLDFGSVDC | -1.71 ± 2.4
NCECSFWKREGSWGTLVSGM | 0.201 ± 0.51
RKLDASHYMPVSDLEFCCMC | 6.752 ± 0.048
YSCGGSDSWGTTNSNLGFRH | -0.751 ± 0.66
QQSQC | inactive
CNRSLWAGPRLHPWTRMYVR | 0.85 ± 0.62
FVYNTSFLYSVCNNWAKRSP | 7.758 ± 0.053
YLMMVIRKVFVPCCNG | 0.378 ± 0.21
SGPRRQIDAIMFRGL | -0.086 ± 1.2
KRLHRGCWEVGSRGSLKLVN | -1.14 ± 1.6
DRMKTQGFCQTFNFWLGYYI | 6.97 ± 0.075
NLTHARGVSSVQRGVMSRTG | -0.747 ± 0.6
SEIPVNGLARLCRGRYRNRQ | 4.66 ± 0.11
ASKFYHFRTQEYTS | 0.212 ± 0.28
GSSENRFF | inactive
PVHVLYFTWMNQECCGHNYL | 6.5 ± 0.07
LGGFSMRVNEVVLPGVRFGD | -0.037 ± 1.7
YWDKMTLTKNFKWLDLLGVG | inactive
LYGSRPYSTTKTY | -0.11 ± 0.33
DRRGRRYKVRRVCMVMESLG | 0.703 ± 0.58
FLIIIRPISRRTCRVCFKQT | -0.246 ± 0.44

Substance | amyloid nucleation score
NVILKDLQVYPEKAVSINRY | 1.05 ± 0.32
NNAHRSVVWRYLVCFSCDFG | 6.454 ± 0.064
LFRWEGVATACSCGDDASFA | -0.668 ± 1.1
SNEVEGLFLKLYNFVPVRQW | 0.148 ± 0.26
VVVEKLAQLNHVKAEPMVSG | 0.335 ± 0.57
TSVDG | 0.162 ± 0.28
SGCGTGKVDVNWGLENAKAG | 0.408 ± 0.59
FAVLHNMMFMKYVRLFLVVT | 0.247 ± 0.45
KLMSEFTKFVFSLLSSNKSH | -0.457 ± 0.31
NVWNVFWLNN | inactive
LSDLDIRKQLVYMRSIRVGT | -0.339 ± 0.94
SMDLHMYSKFMRYSVFVCNL | 1.14 ± 0.79
MVHCRQI | 0.219 ± 0.32
MGGWNGNGIFCAYIYM | 0.344 ± 0.15
DWANSTDFV | -0.195 ± 0.18
HCSSVQFPRTGVIEVALQKD | -0.17 ± 0.57
FNYLICAVDSRTLNSW | 4.7 ± 0.05
CDLFSRACGSAMDTYNKSHI | -1.01 ± 0.9
GCLNDCGSLVWYGVCKSCLP | 0.446 ± 0.6
LHNERRSVISTPYRQSEAGL | 0.707 ± 0.43
TGSLLTSTWS | -0.474 ± 0.78
WSGFFFAGLWVVLCVEGGAC | 0.192 ± 0.88
FILIYTAPFIGGLVGLGDGH | inactive
SDVSYLVNSSNVGLWHL | 0.467 ± 0.4
TSFFFHEQHHFKGNKFNFEV | 3.5 ± 0.18

Substance | amyloid nucleation score
PFVQRFCL | 0.486 ± 0.49
YKWIDRMVDERQLMSSKRQW | 0.099 ± 0.66
VRSPDSLVVWDLVRH | -0.367 ± 0.49
CFVVCDMAF | inactive
SCLMY | inactive
YSFGVSTWLI | -0.396 ± 0.74
VPENLKRMRVRAVSLGMSGE | 1.44 ± 0.5
YPPRAQDMTRSAQRKCQRGV | inactive
FSCKSAPQFCRWG | 0.718 ± 0.42
LWPDTDPIGGE | -0.74 ± 1.1
NSGNHDSCKFFGLLVRQMVG | 0.529 ± 0.46
HTESRSSYGYVCPGYNLISF | 0.2 ± 0.63
YRSFCFRWWISSGCAGLRGS | 0.489 ± 0.67
CHLVSSTSAFA | 1.01 ± 0.56
DMQSEGDRGDHRGSRDCRS | 0.983 ± 1
SNKRNYRLE | 0.401 ± 0.62
VIRRLRSTYMSDMLLEGGLA | 0.864 ± 0.56
VADFSL | 1.44 ± 0.53
NFRNSGESSTNYSK | inactive
DICVWDYMNRGGQLL | -0.047 ± 0.86
LACTYLCWALC | -1.32 ± 0.86
MLEGMRRWNNIALVVIRGVG | -0.556 ± 1.1
WYRYEPLVMTRQMSGVGPMR | 0.124 ± 0.33
FFTLHAFQ | inactive
SIGLC | 1.31 ± 0.76

Substance | amyloid nucleation score
FLVPEVEKIFNIRVLEVRLM | -0.834 ± 0.6
NCYGYVEKWWGVCTNDPLGR | -0.133 ± 0.25
LNSVVTVKWVLKARSLVVRC | 1.16 ± 0.88
YCDAYPGRKTEILVVQLF | 5.6 ± 0.064
HSLSFTNVVDTSLPLVLANF | -2.15 ± 2.4
SYPESTTRNF | -0.209 ± 0.39
NKSVNLEYGRWVNMVPGLM | inactive
SIRLPVIKRSRL | -0.109 ± 0.66
LQLWLMDGSSRGRWV | 0.12 ± 0.64
VTHGHVGTVGSWVVRTTAFM | -0.937 ± 2.1
VMSATVSSFWTEVCRMRTVT | 1.14 ± 0.66
AESLIKHLK | 0.334 ± 0.43
LLSMLRCYWVSRLFV | -0.079 ± 0.65
SYILEKGLQTAYCVC | 1.42 ± 0.46
QGMQICHQKHGAWSGYNGRE | -0.379 ± 0.29
YVSCFRG | 0.925 ± 0.3
TRRVWLQCLMLSYMAVYISM | 0.044 ± 1.1
HFHNSCLYIGRVHIGHTLGV | 7.826 ± 0.052
RHYSARQWQIWGFCDLPHSR | 0.086 ± 0.66
RLARWPEPLIRCFAS | 0.594 ± 0.55
FIIVEECNFRNRRLTYRLFI | 0.816 ± 0.49

Source: the supplement of paper PMC12042874
